T1: cynomolgus monkey TF-His (cynomolgus monkey, UniProt A0A2K5VX02 33-253)
T1 construct: range 33-252; Recombinant extracellular segment expressed in HEK293-EBNA cells and purified on a nickel column; also called c.TF-His; c; TF-his; not shown: His tag from vector pTT5-His
T1 sequence: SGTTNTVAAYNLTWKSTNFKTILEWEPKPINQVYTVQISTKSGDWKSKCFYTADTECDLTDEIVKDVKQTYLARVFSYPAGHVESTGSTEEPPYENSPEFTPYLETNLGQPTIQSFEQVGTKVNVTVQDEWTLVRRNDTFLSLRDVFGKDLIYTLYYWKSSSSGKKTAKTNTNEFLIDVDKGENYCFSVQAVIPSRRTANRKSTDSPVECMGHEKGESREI


Experiments:
[1] = molecular target: T1, cynomolgus monkey TF-His; assay: BLI (ForteBio Octet), antibody on ProA sensor, TF-His as analyte
Method: (§1) The dynamic affinity of the humanized antibodies was determined by ForteBio. The experimental procedures were as follows: a ProA sensor (18-5010, Octet) was taken out and pre-wetted with a PBST diluent (pH 7.4) for 10 min. The antibodies to be immobilized were diluted to 5 μg/mL. […] The program was set up, the sensor plate and sample plate were put in, then the program started. The sensor was regenerated with 20 mM glycine solution (pH 1.7). The data were analyzed using Octet analysis software to derive a result graph.

[2] = molecular target: T2, human TF-His (human, UniProt P13726 33-251); assay: as above
T2 construct: range 33-251; Recombinant extracellular segment expressed in HEK293-EBNA cells and purified on a nickel column; also called h.TF-His; h; TF-his; not shown: His tag from vector pTT5-His
Method: as §1

[3] = molecular target: T3, tissue factor (TF) on the surface of TF-positive tumor cells (human, UniProt P13726 33-295); assay: cell ELISA on fixed NCI-H358 cells
T3 construct: whole, on cells; The cell line used is named under assay or readout in each row; also called TF on NCI-H358 cells; TF on KYSE520 cells
Method: TF antigen-positive cells (MDA-MB-231 or NCI-H358 cells) were seeded into a 96-well plate at 5×10⁴ cells/well one day prior to the experiment. On the day of the experiment, the culture supernatant was removed, each well was washed once with 300 μL of PBS, and 100 μL of 4% paraformaldehyde was added to each well for immobilization at room temperature for 20 min. The paraformaldehyde was removed, and each well was washed twice with 300 μL of PBS, and 100 μL of 2% BSA in PBS was added to each well for blocking at 37° C. for 2 h. After the blocking was completed, 30 μL of the test sample (hybridoma supernatant or purified antibody) was added to each well and the plate was incubated at 37° C. for 2 h. The liquid was removed, and each well was washed three times with 300 μL of PBST. 100 μL of HRP-conjugated secondary antibody in 2% BSA was added to each well, and the plate was incubated at 37° C. for 1 h. […] The secondary antibody was removed, each well was washed five times with 300 μL of PBST, and 100 μL of TMB substrate (Huzhou InnoReagents Co., Ltd., TMB-S-004) was added to each well for color development for 5-20 min. 50 μL of 2 N HCl was added to each well to stop the reaction, and OD450 nm values were read using a microplate reader (manufacturer: MD, model: SpectraMax) to determine the binding of the samples to TF-positive cells.
The assay was performed as described in the general methods. Briefly, TF antigen-positive NCI-H358 cells were digested with trypsin, collected, seeded into a 96-well plate at 5×10⁴ cells/well and incubated overnight, and then immobilized with 4% paraformaldehyde. After the paraformaldehyde was removed and the cells were washed with PBS, the plate was blocked with 2% BSA at 37° C. for 2 h. Each of the antibodies obtained by the gradient dilution (starting at 10 μg/mL, 3-fold graded dilution, 11 concentration points) was added. The plate was incubated at 37° C. for 2 h.

[4] = molecular target: T3, tissue factor (TF) on the surface of …; assay: flow cytometry on NCI-H358 cells
Method: (§2) A TF low/medium-expressing cell line NCI-H358 (source: Nanjing Cobioer, CBP60136) and a TF high-expressing cell line KYSE520 (source: Nanjing Cobioer, CBP60658) were digested with trypsin, collected by centrifugation, and washed three times with pre-cooled PBS. The cells were resuspended in 1% BSA and seeded into a 96-well sharp-bottom plate at 3×10⁵ cells/well. Each of the antibodies obtained by the gradient dilution was added, and the plate was incubated at 4° C. for 1 h. The cells were washed three times with pre-cooled PBS. 1 μL of anti-human fluorescent secondary antibody (APC anti-human IgG Fc Antibody, Biolegend, 410712) was added to each well, and the plate was incubated at 4° C. for 0.5 h. The cells were washed three times with pre-cooled PBS, resuspended, and detected by a flow cytometer (Sony, LE-SA3800GA). The data were imported into GraphPad software for curve fitting.

[5] = molecular target: T2, human TF-His; assay: antigenic protein-based ELISA, before conjugation (TF antigen species not stated)
Method: (§3) The ELISA plate was coated overnight with TF antigen (h.TF-His or c.TF-His antigen) in 50 mM carbonate coating buffer (CBS coating solution) at a coating concentration of 1 μg/mL in a volume of 100 μL at 4° C. The next day, the coating solution was removed, each well was washed once with 300 μL of PBS, and 100 μL of 2% BSA (Biotopped, A6020) in PBS was added to each well for blocking at 37° C. for 2 h. The test sample was subjected to a gradient dilution with 2% BSA in PBS to establish 11 concentration points. 100 μL of each of the samples obtained by the gradient dilution was added to the plate, and the plate was incubated at 37° C. for 2 h. The supernatant was removed, and each well was washed three times with 300 μL of PBST. 100 μL of HRP-conjugated secondary antibody in 2% BSA was added to each well, and the plate was incubated at 37° C. for 1 h. […] At the end of the incubation, the secondary antibody was removed, each well was washed five times with 300 μL of PBST, and 100 μL of TMB substrate (Huzhou InnoReagents Co., Ltd., TMB-S-004) was added to each well for color development for 5-20 min. 50 μL of 2 N HCl was added to each well to stop the reaction, and OD450 nm values were read using a microplate reader (manufacturer: MD, model: SpectraMax) and imported into GraphPad software for fitting and plotting to determine the binding of the samples to TF antigenic proteins.

[6] = molecular target: T2, human TF-His; assay: ELISA, plate coated with h.TF-His
Method: as §3
(§4) The assay was performed as described in the general methods. Briefly, an ELISA plate coated with a human TF-his protein or a cynomolgus monkey TF-his protein was blocked with 2% BSA at 37° C. for 2 h, and each of the antibodies obtained by the gradient dilution (starting at 10 μg/mL, 3-fold graded dilution, 11 concentration points) was added. The plate was incubated at 37° C. for 2 h.

[7] = molecular target: T3, tissue factor (TF) on the surface of …; assay: cell-based or functional assay
[8] = molecular target: T3, tissue factor (TF) on the surface of …; assay: flow cytometry on KYSE520 cells
Method: as §2

[9] = molecular target: T3, tissue factor (TF) on the surface of …; assay: cell-based or functional assay; remark: listed apart in the source
[10] = molecular target: T1, cynomolgus monkey TF-His; assay: ELISA, plate coated with c.TF-His
Method: as §3, §4

[11] = molecular target: T3, tissue factor (TF) on the surface of …; assay: cell-based or functional assay; remark: listed apart in the source
[12] = molecular target: T2, human TF-His; assay: antigenic protein-based ELISA, after conjugation with B81 (TF antigen species not stated)
Method: as §3

Binder	Kd [1] [nM]	koff [1] [s⁻¹]	kon [1] [M⁻¹ s⁻¹]	Kd [2] [nM]	koff [2] [s⁻¹]	kon [2] [M⁻¹ s⁻¹]	EC50 [3] [ng/mL]	EC50 [4] [ng/mL]	EC50 [5] [ng/mL]	EC50 [6] [ng/mL]	IC50 (ng/mL), inhibition of FVIIa-induced IL-8 release by MDA-MB-231 cells [7] [ng/mL]	Maximum inhibition rate (%), FVIIa-induced IL-8 release by MDA-MB-231 cells [7] [%]	EC50 [8] [ng/mL]	Endocytosis rate (%) on NCI-H358 cells, 2 h [9] [%]	Endocytosis rate (%) on NCI-H358 cells, 4 h [9] [%]	EC50 [10] [ng/mL]	coagulation time V50 (s), MDA-MB-231 cells + human plasma, 2 mM Ca2+, 50 µg/mL antibody [11] [s]	coagulation time V50 (s), MDA-MB-231 cells + human plasma, 5 mM Ca2+, 20 µg/mL antibody [11] [s]	EC50 [12] [ng/mL]
2B12B10-hz1 (antibody, human IgG1, kappa, V domains shown, Humanized IgG1 kappa) VH: EVQLVESGGGLVQPGGSLRLSCAASGFAFSDSGMHWVRQAPGKGLEWVAYISRDSNTIYYADSVKGRFTISRDNAKNSLYLQMNSLRAEDTAVYYCGRRYYGDYFDYWGQGTLVTVSS VL: DIVLTQSPATLSLSPGERATLSCRASQRVTNYLHWYQQKPGQSPRLLIKYASQSISGIPARFSGSGSGTDFTLTISSLEPEDFAVYFCQQSYNWPLTFGQGTKVEIKR	33.8	0.0116	344000	13.8	0.00289	209000	3.88	187	6.65	6.72	128	94.1	140	34.3	49.6	13.6	882	24.2	–
30G11B7-hz1 (antibody, human IgG1, kappa, V domains shown, Humanized IgG1 kappa) VH: EVQLVESGGGLVKPGGSLRLSCAASGFTFSDYGMFWVRQAPGKGLEWVAYISRGSTTIYYADSVKGRFTISRDNAKNSLYLQMNSLRAEDTAVYFCTRRYYGDYFDYWGQGTLVTVSS VL: EIVLTQSPDFQSVTPKEKVTITCRASQSISNYLHWYQQKPDQSPKLLIKYASQSISGVPSRFSGSGSGTDFTLTINSLEAEDAATYFCQQSYNWPLTFGQGTKVEIKR	146	0.053	364000	25.8	0.00506	197000	4.73	145	7.68	7.91	129	100	138	19.8	46.1	20.8	1450	29.2	–
30G11B7-hz1-B81 (antibody, human IgG1, kappa, V domains shown, drug-linker DL-01 (B81) on cysteine sulfhydryl group; prepared by the TF-ADC (DAR8) method (1 toxin molecule per light chain); drug-linker DL-01 (B81) on cysteine sulfhydryl groups; prepared by the TF-ADC (DAR8) method (3 toxin molecules per heavy chain)) VH: EVQLVESGGGLVKPGGSLRLSCAASGFTFSDYGMFWVRQAPGKGLEWVAYISRGSTTIYYADSVKGRFTISRDNAKNSLYLQMNSLRAEDTAVYFCTRRYYGDYFDYWGQGTLVTVSS VL: EIVLTQSPDFQSVTPKEKVTITCRASQSISNYLHWYQQKPDQSPKLLIKYASQSISGVPSRFSGSGSGTDFTLTINSLEAEDAATYFCQQSYNWPLTFGQGTKVEIKR	–	–	–	–	–	–	–	–	–	–	–	–	–	–	–	–	–	–	7.75
2B12B10-hz1-B81 (antibody, human IgG1, kappa, V domains shown, drug-linker DL-01 (B81) on cysteine sulfhydryl group; prepared by the TF-ADC (DAR8) method (1 toxin molecule per light chain); drug-linker DL-01 (B81) on cysteine sulfhydryl groups; prepared by the TF-ADC (DAR8) method (3 toxin molecules per heavy chain), also called 2B12B10-B81) VH: EVQLVESGGGLVQPGGSLRLSCAASGFAFSDSGMHWVRQAPGKGLEWVAYISRDSNTIYYADSVKGRFTISRDNAKNSLYLQMNSLRAEDTAVYYCGRRYYGDYFDYWGQGTLVTVSS VL: DIVLTQSPATLSLSPGERATLSCRASQRVTNYLHWYQQKPGQSPRLLIKYASQSISGIPARFSGSGSGTDFTLTISSLEPEDFAVYFCQQSYNWPLTFGQGTKVEIKR	–	–	–	–	–	–	–	–	–	–	–	–	–	–	–	–	–	–	3.76
27H8H3-hz1-B81 (antibody, human IgG1, kappa, V domains shown, drug-linker DL-01 (B81) on cysteine sulfhydryl group; prepared by the TF-ADC (DAR8) method (1 toxin molecule per light chain); drug-linker DL-01 (B81) on cysteine sulfhydryl groups; prepared by the TF-ADC (DAR8) method (3 toxin molecules per heavy chain)) VH: QVQLVQSGAEVKKPGASVKVSCKASGYTFTTYWMHWVRQAPGQGLEWMGMIDPSDSYTSYAQKFQGRVTLTVDTSTSTAYMELSSLRSEDTAVYYCTRGSGPGLFAYWGQGTLVTVSS VL: DIQETQSPSSLSASVGDRVTITCRASQGISNYLNWYQQKPGKAPKLLIYHTSRLHSGVPSRFSGSVSGTDFTLTISSLQPEDFATYFCQQGNTLPYTFGQGTKVEIKR	–	–	–	–	–	–	–	–	–	–	–	–	–	–	–	–	–	–	3.43
22F11H5-hz1-B81 (antibody, human IgG1, kappa, V domains shown, drug-linker DL-01 (B81) on cysteine sulfhydryl group; prepared by the TF-ADC (DAR8) method (1 toxin molecule per light chain); drug-linker DL-01 (B81) on cysteine sulfhydryl groups; prepared by the TF-ADC (DAR8) method (3 toxin molecules per heavy chain)) VH: QVQLVQSGAEVKQPGASVKVSCKASGYTFTTYWMHWVRQAPGQGLEWMGMIDPSDSYTTYAQKFQGRVTLTVDTSTSTAYMELSSLRSEDTAVYYCARGSGPGLFAYWGQGTLVTVSS VL: DIQETQSPSSLSASVGDRVTITCRASQDIRNYLNWYQQKPGKAPKLLIYHTSRLQSGVPSRFSGSGSGTDYTLTISSLQPEDFATYYCQQGNMPPYTFGQGTKVEIKR	–	–	–	–	–	–	–	–	–	–	–	–	–	–	–	–	–	–	8.83
